# Laboratory results reported in publication doi:10.1101/2021.10.18.464838 (2021).
# Where no end group is shown, it is not given here.
# T1: CHIP (recombinant human) (human, UniProt Q9UNE7 1-303)
# T1 chain: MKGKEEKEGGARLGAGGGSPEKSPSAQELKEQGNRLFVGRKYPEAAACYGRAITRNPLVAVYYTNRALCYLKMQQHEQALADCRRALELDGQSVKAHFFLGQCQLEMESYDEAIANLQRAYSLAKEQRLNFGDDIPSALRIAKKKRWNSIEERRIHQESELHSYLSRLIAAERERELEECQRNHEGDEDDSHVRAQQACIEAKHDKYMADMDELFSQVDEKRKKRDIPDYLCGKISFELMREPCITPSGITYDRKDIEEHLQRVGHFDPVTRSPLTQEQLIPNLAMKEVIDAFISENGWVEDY
# Experiments:
# CHIP (recombinant human) = target: T1, CHIP (recombinant human); assay: FP
# [1] = target: DnaJB4 (recombinant, human, full length, wild type) (human, UniProt Q9UDY4 1-337); assay: FP
# Sequence of DnaJB4 (recombinant, human, full length, wild type) (Q9UDY4 whole entry): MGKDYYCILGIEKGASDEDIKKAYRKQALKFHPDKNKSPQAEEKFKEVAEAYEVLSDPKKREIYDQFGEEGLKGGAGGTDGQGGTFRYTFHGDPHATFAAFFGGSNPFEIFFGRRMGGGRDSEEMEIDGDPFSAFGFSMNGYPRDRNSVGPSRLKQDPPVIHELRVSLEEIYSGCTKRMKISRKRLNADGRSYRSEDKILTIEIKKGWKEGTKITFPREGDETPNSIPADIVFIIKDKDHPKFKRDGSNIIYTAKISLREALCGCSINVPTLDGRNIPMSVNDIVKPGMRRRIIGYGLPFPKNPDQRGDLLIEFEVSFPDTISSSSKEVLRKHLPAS
binder,measurement,setting,value
GSGPEIEEVD-OH (not fully specified (N-terminus); printed as FITC-Ahx-GSGPEIEEVD) [Hsp72 phosphomimetic T636E tracer FITC-Ahx-GSGPEIEEVD],Kd,CHIP (recombinant human),5.04 µM
same,Kd,[1],1680 nM
